Patent publication US20050164345A1, “Synthesis of human procollagens and collagens in recombinant DNA systems” (priority 1992, published 2005)

Test system: prolyl 4-hydroxylase
Test: prolyl 4-hydroxylase activity of Triton X-100 extracts from insect cells (hydroxylation-coupled decarboxylation of 2-oxo[1-14C]glutarate)
Format: biochemical
Conditions: Triton extract, 72 h after infection
Experimental: The 0.2% Triton X-100 extracts of cell homogenates were analyzed for prolyl 4-hydroxylase activity with an assay based on the hydroxylation-coupled decarboxylation of 2-oxo [1-^14C] glutarate (Kivirikko et al., Methods EnzVmol. 82: 245-304 (1982)). As reported previously (Veijola et al., J. Biol. Chem. 269: 26746-26753 (1994)), a significant level of prolyl 4-hydroxylase activity was found in both Sf9 and High Five cells, the activity in High Five cells being distinctly higher than that in Sf9 cells (Table I). […]
Insect cells (Sf9 or High Five, Invitrogen) were cultured in TNM-FH medium (Sigma) supplemented with 10% fetal bovine serum (BioClear) or in a serum-free HyQ CCM3 medium (HyClone) either as monolayers or in suspension in shaker flasks at 27° C. […] The remaining cell pellet that was insoluble in the homogenization buffer was further solubilized in 1% SDS and analyzed by SDS-PAGE^1. […] Aliquots of the supernatants of the cell homogenates and the concentrated cell culture medium were analyzed by denaturing SDS-PAGE, followed by staining with Coomassie Brilliant Blue or Western blotting with an antibody to the N-propeptide of human type III procollagen.

B1: Proα1 (III) chains: Triton X-100 extract of insect cells expressing only proα1 chains of human type III procollagen (protein, UniProt P02461 24-1466, looked up)
pro-form: QQEAVEGGCSHLGQSYADRDVWKPEPCQICVCDSGSVLCDDIICDDQELDCPNPEIPFGECCAVCPQPPTAPTRPPNGQGPQGPKGDPGPPGIPGRNGDPGIPGQPGSPGSPGPPGICESCPTGPQNYSPQYDSYDVKSGVAVGGLAGYPGPAGPPGPPGPPGTSGHPGSPGSPGYQGPPGEPGQAGPSGPPGPPGAIGPSGPAGKDGESGRPGRPGERGLPGPPGIKGPAGIPGFPGMKGHRGFDGRNGEKGETGAPGLKGENGLPGENGAPGPMGPRGAPGERGRPGLPGAAGARGNDGARGSDGQPGPPGPPGTAGFPGSPGAKGEVGPAGSPGSNGAPGQRGEPGPQGHAGAQGPPGPPGINGSPGGKGEMGPAGIPGAPGLMGARGPPGPAGANGAPGLRGGAGEPGKNGAKGEPGPRGERGEAGIPGVPGAKGEDGKDGSPGEPGANGLPGAAGERGAPGFRGPAGPNGIPGEKGPAGERGAPGPAGPRGAAGEPGRDGVPGGPGMRGMPGSPGGPGSDGKPGPPGSQGESGRPGPPGPSGPRGQPGVMGFPGPKGNDGAPGKNGERGGPGGPGPQGPPGKNGETGPQGPPGPTGPGGDKGDTGPPGPQGLQGLPGTGGPPGENGKPGEPGPKGDAGAPGAPGGKGDAGAPGERGPPGLAGAPGLRGGAGPPGPEGGKGAAGPPGPPGAAGTPGLQGMPGERGGLGSPGPKGDKGEPGGPGADGVPGKDGPRGPTGPIGPPGPAGQPGDKGEGGAPGLPGIAGPRGSPGERGETGPPGPAGFPGAPGQNGEPGGKGERGAPGEKGEGGPPGVAGPPGGSGPAGPPGPQGVKGERGSPGGPGAAGFPGARGLPGPPGSNGNPGPPGPSGSPGKDGPPGPAGNTGAPGSPGVSGPKGDAGQPGEKGSPGAQGPPGAPGPLGIAGITGARGLAGPPGMPGPRGSPGPQGVKGESGKPGANGLSGERGPPGPQGLPGLAGTAGEPGRDGNPGSDGLPGRDGSPGGKGDRGENGSPGAPGAPGHPGPPGPVGPAGKSGDRGESGPAGPAGAPGPAGSRGAPGPQGPRGDKGETGERGAAGIKGHRGFPGNPGAPGSPGPAGQQGAIGSPGPAGPRGPVGPSGPPGKDGTSGHPGPIGPPGPRGNRGERGSEGSPGHPGQPGPPGPPGAPGPCCGGVGAAAIAGIGGEKAGGFAPYYGDEPMDFKINTDEIMTSLKSVNGQIESLISPDGSRKNPARNCRDLKFCHPELKSGEYWVDPNQGCKLDAIKVFCNMETGETCISANPLNVPRKHWWTDSSAEKKHVWFGESMDGGFQFSYGNPELPEDVLDVHLAFLRLLSSRASQNITYHCKNSIAYMDQASGNVKKALKLMGSNEGEFKAEGNSKFTYTVLEDGCTKHTGEWSKTVFEYRTRKAVRLPIVDIAPYDIGGPDQEFGVDVGPVCFL
modifications: pro-form
notes: Triton X-100 extract of insect cells expressing only proα1 chains of human type III procollagen
- Prolyl 4-hydroxylase activity (High Five cells, mean of duplicates in three experiments): 500 dpm/10 μl
- Prolyl 4-hydroxylase activity (Sf9 cells, mean of duplicates in one experiment): 60 dpm/10 μl
